Data on one molecule can be found in article PMC4357722, “A novel endonuclease that may be responsible for damaged DNA base repair in Pyrococcus furiosus”.

The series has as its target T1, PfuEndoQ (PF1551) (Pyrococcus furiosus, UniProt Q8U0N5 1-424).
T1 sequence: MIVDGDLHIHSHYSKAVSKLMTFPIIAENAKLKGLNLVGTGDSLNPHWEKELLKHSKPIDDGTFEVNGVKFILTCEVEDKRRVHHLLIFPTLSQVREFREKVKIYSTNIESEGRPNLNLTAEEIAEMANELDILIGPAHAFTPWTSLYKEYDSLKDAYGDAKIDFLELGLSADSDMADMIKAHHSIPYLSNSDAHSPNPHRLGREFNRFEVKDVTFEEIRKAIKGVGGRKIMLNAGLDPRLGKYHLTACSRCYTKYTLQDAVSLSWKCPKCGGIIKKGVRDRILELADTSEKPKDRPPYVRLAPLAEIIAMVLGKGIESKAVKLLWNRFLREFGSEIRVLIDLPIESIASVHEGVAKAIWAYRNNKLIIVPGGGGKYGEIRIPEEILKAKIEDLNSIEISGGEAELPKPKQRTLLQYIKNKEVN
In words: EMSA; 1 mM Mg2+; 60 C; EMSA: 50 mM Tris-HCl pH 8.0, 1 mM MgCl2, 1 mM DTT, 0.01% Tween 20, 60 C 10 min, 5 nM DNA, 0-50 nM protein; 4% PAGE in TBE. Conditions: protein: recombinant; tags: none (untagged; native stop codon in the reverse primer, pET21d); blunt.

B1: 45N dsDNA (normal duplex) (dsDNA)
DNA 1: CGAACTGCCTGGAATCCTGACGACATGTAGCGAACGATCACCTCA
DNA 2: TGAGGTGATCGTTCGCTACATGTCGTCAGGATTCCAGGCAGTTCG
As for B1, the binding result was “no binding”.
